The Human Domainome abundance scans (Beltran et al. 2025)

B1: CD2-associated protein, residues 271 to 331; numbered along this chain, Q9Y5K6 (parent)
chain: KEYCRTLFAYEGTNEDELTFKEGEIIHLISKETGEAGWWRGELNGKEGVFPDNFAVQINEL

Variants of: B1
Test: abundance fitness (aPCA) (normalised: wild type 0, dead -1); higher = more abundant; growth selection in yeast, the domain comes from the species named
Conditions: Homo sapiens

Abundance fitness, by site and new letter:
N59: L -0.501, W -0.367, Y -0.332, Q -0.056, I -0.702, H -0.1, E -0.05, G -0.037, P -0.032, M -0.426, K -0.274, S 0.009, T -0.147, V -0.349
E60: L -0.296, S -0.124, P -0.015, M -0.42, D 0.172, H 0.13, C -0.127, Q -0.115, I -0.475, N -0.227, G 0.013, F -0.213, R -0.178, W -0.258, K 0.03, V -0.291, T -0.11, A -0.05
L61: K 0.033, I -0.29, R -0.049, C 0.275, V 0.02, Y 0.064, S 0.152, P 0.215, Q 0.113, E 0.026, M -0.003, A 0.033, H 0.009, T 0.105, W -0.116
